Laboratory results: patent US6358897B1, “Alkyl trypsin compositions and methods of use in contact lens cleaning and disinfecting systems” (Alcon Laboratories, Inc., priority 1996, dated 2002)

Test system: azocasein
Test: Stability of Et-trypsin and trypsin in a disinfecting composition (Example 2B), azocasein method
Format: physicochemical
Settings: 37° C., Example 2B composition, 50 μg/ml
Procedure: Azocasein Method The following solutions are used in this assay: 1) Buffer solution: 0.05 M sodium phosphate buffer containing 0.9% sodium chloride, pH 7.6. 2) Substrate solution: 2 mg/ml azocasein in the buffer solution mentioned above. The assay is initiated by mixing 1 ml of an appropriately diluted (such that the enzyme activity is in the range of standard curve) enzyme composition in phosphate buffer with 2 ml of azocasein substrate solution (2 mg/ml). After incubation at 37° C. for 20 minutes, the mixture is removed from the incubator and 1 ml of trichloroacetic acid to (14% w/v) is added to stop the enzyme reaction. The mixture is vortexed well and allowed to stand at room temperature for 20 minutes. After centrifuging at 2500 rpm (with a Beckman GS-6R Centrifuge) for 15 minutes, the supernatant is filtered with a serum sampler. 2 ml of the clear yellow filtrate is then adjusted to a neutral pH with 2 ml of 0.5 N sodium hydroxide and the absorbance of 440 nm wavelength light is measured with a spectrophotometer. The amount of azocasein hydrolyzed is calculated based on a standard curve of known concentrations of azocasein solution developed under identical conditions. An enzyme activity unit (“AZ U”) is defined as that amount of enzyme which hydrolyzes 1 μg of azocasein substrate/minute at 37° C. The following is an example of the stability of Et-trypsin or Me-trypsin in a disinfecting composition of the present invention as compared to an analogous composition containing trypsin. The enzymes were solubilized in the Example 2B composition. The compositions were stored at 37° or 50° C. for 8 days or 30 hours, respectively. At various time points, enzyme activity was assayed using the azocasein method.

Trypsin [Native Trypsin, reference compound]
% Activity Remaining (1 Hour): 86.8% | % Activity Remaining (2 Hours): 80.0% | % Activity Remaining (4 Hours): 72.7% | % Activity Remaining (6 Hours): 62.9% | % Activity Remaining (8 Hours): 56.6% | % Activity Remaining (1 day): 37.6% | % Activity Remaining (2 days): 26.8% | % Activity Remaining (4 days): 17.9% | % Activity Remaining (8 days): 11.2%
